# Results as given in patent US6753151B1, “Interactions of Ku polypeptides and applications thereof” (Kudos Pharmaceuticals Limited, priority 1999, dated 2004).
# Experiments:
# [1] = biological target: T1, full length Ku80 (Homo sapiens, UniProt P13010); experiment: GST pull-down of Ku80 from biotinylated bacterial extract by GST-Ku70 derivatives; assay type: binding; settings: GST-fusion on glutathione agarose beads, biotinylated bacterial extract containing Ku80, seven NETN washes, streptavidin-HRP blot
# T1 construct: incubated with biotinylated bacterial cell extracts containing full length Ku80; made in house; host or cells: E. coli BL21 pLysS
# Description: (§1) Full length Ku70 and Ku80 were cloned in frame with the glutathione binding domain of human glutathione S-transferase (GST) by sub-cloning into pGEX2TKP (a derivative of […] by Pharmacia). Deletion mutants of Ku70 and Ku80 were cloned by Pfu polymerase amplification and cloning into pGEX2TKP. Expression from all pGEX2TKP constructs was carried out in either DH5α or DS941 strains of E. coli. Bacterial cell extracts were produced by sonication in Phosphate-buffered saline (PBS; 138 mM NaCl, 3 mM KCl, 10 mM Phosphate buffer pH 7.4) containing 1% Triton-X100 (Sigma) and protease inhibitor tablets (Boehringer). GST-fusion proteins were purified by passing bacterial lysates over Glutathione Agarose beads (Pharmacia) and washing extensively in PBS containing 1% Triton-X100 and then in PBS alone. The beads/proteins were stored at −80° C. prior to use.
# Ku70 and Ku80 were cloned into pET30a (Novagen) to generate a N-terminal hexa-Histidine tag and expressed at low levels in E. coli (BL21 pLysS). […]
# (§2) In a complementary approach to the yeast 2-hybrid technique, the inventors used a “pull-down” assay to detect interactions between recombinant deletion derivatives of the two Ku subunits. […] Interacting proteins were detected by probing these western blots with streptavidin that was conjugated to horse radish peroxidase (HRP). […]
# [2] = biological target: T2, full length Ku70 (Homo sapiens, UniProt P12956); experiment: GST pull-down of Ku70 from biotinylated bacterial extract by GST-Ku80 derivatives; assay type: binding; settings: GST-fusion on glutathione agarose beads; biotinylated bacterial extract containing Ku70; seven NETN washes; streptavidin-HRP blot
# T2 construct: incubated with biotinylated bacterial cell extracts containing full length Ku70; made in house; host or cells: E. coli BL21 pLysS
# Description: as §1, with “use. […]” for “use.”
# as §2
# The inventors tested a range of Ku80 deletion derivatives expressed as GST-fusions for their ability to interact with full-length Ku70. […]
# T1 sequence (P13010 whole entry, the tested form may be a part): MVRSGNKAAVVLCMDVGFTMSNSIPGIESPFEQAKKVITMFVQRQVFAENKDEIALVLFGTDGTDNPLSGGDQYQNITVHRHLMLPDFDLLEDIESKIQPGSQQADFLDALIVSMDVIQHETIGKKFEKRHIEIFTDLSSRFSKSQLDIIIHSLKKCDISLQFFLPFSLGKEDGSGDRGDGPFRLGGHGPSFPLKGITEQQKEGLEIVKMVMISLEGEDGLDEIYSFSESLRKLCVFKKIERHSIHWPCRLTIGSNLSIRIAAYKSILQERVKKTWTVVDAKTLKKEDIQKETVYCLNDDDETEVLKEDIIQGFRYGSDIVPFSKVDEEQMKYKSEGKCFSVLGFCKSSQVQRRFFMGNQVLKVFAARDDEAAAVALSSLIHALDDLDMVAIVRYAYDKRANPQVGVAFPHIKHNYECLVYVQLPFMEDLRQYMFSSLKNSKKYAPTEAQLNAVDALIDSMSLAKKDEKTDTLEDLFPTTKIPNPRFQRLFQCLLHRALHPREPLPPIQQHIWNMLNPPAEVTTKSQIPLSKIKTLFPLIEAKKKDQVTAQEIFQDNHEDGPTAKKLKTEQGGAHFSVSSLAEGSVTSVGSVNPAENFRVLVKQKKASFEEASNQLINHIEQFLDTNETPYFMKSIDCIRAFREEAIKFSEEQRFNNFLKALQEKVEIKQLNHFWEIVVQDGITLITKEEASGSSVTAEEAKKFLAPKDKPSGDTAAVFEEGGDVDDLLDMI
# T2 sequence (P12956 whole entry, the tested form may be a part): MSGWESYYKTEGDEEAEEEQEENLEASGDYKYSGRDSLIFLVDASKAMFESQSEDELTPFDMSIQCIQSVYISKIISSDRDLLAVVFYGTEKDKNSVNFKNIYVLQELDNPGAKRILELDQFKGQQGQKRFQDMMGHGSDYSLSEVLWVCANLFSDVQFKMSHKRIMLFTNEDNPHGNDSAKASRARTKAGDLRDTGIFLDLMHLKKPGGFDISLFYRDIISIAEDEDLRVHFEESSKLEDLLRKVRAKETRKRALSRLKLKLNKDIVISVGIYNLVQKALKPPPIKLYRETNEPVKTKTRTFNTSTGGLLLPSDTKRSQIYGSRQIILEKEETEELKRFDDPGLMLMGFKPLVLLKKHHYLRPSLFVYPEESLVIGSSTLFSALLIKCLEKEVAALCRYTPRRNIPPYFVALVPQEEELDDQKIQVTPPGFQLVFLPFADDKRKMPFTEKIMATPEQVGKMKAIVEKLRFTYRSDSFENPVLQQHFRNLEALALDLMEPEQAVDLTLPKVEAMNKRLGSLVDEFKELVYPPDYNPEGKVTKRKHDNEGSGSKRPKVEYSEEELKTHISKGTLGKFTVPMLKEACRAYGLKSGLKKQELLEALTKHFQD
Substance,interaction with full-length Ku80 [1],interaction with full-length Ku80 ([1]; listed as Full-length Ku70),interaction with full-length Ku70 [2]
"GST-Ku70: full length human Ku70 fused to glutathione S-transferase, expressed in E. coli",only a single species is retained efficiently on the beads,binds to Ku80 efficiently,
"GST-Ku80: full length human Ku80 fused to glutathione S-transferase, expressed in E. coli",,,only a single species is retained efficiently on the beads
